Experimental data from IntAct's records for PubMed 29039417.

B1: BBSome complex member BBS4 (Homo sapiens), Q96RK4 (parent)
chain: MAEERVATRTQFPVSTESQKPRQKKAPEFPILEKQNWLIHLHYIRKDYEACKAVIKEQLQETQGLCEYAIYVQALIFRLEGNIQESLELFQTCAVLSPQSADNLKQVARSLFLLGKHKAAIEVYNEAAKLNQKDWEISHNLGVCYIYLKQFNKAQDQLHNALNLNRHDLTYIMLGKIHLLEGDLDKAIEVYKKAVEFSPENTELLTTLGLLYLQLGIYQKAFEHLGNALTYDPTNYKAILAAGSMMQTHGDFDVALTKYRVVACAVPESPPLWNNIGMCFFGKKKYVAAISCLKRANYLAPFDWKILYNLGLVHLTMQQYASAFHFLSAAINFQPKMGELYMLLAVALTNLEDIENAKRAYAEAVHLDKCNPLVNLNYAVLLYNQGEKKNALAQYQEMEKKVSLLKDNSSLEFDSEMVEMAQKLGAALQVGEALVWTKPVKDPKSKHQTTSTSKPASFQQPLGSNQALGQAMSSAAAYRTLPSGAGGTSQFTKPPSLPLEPEPAVESSPTETSEQIREK
partner: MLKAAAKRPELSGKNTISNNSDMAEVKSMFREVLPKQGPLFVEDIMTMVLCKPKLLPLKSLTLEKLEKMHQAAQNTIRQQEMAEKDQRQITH

Variants of: B1
Details: with bbip1_human BBIP1, A8MTZ0

| Variant | effect of a mutation on the interaction |
| --- | --- |
| M337K | with no effect |
| M337A | with no effect |
| M337E | with no effect |
| V346E | disrupting interaction strength |
| V346K | with no effect |
| V346A | disrupting interaction strength |
| F333A | with no effect |
| F333K | with no effect |
| F333E | with no effect |
| L344A | with no effect |
| L344K | with no effect |
| L344E | with no effect |
| A347K | with no effect |
| A347E | with no effect |
| A347D | disrupting interaction strength |
| E339A | with no effect |
| E339K | with no effect |
| M342K | disrupting interaction strength |
| M342W | disrupting interaction strength |
| M342R | disrupting interaction strength |
| M342T | disrupting interaction strength |
| M342E | with no effect |
| M342V | disrupting interaction strength |
| M342A | with no effect |
| A345K | with no effect |
| A345T | disrupting interaction strength |

| Variant | effect of a mutation on the interaction |
| --- | --- |
| A345E | with no effect |
| A345V | disrupting interaction strength |
| Q334E | with no effect |
| Q334A | with no effect |
| Q334K | with no effect |
| Q334D | disrupting interaction strength |
| L348P | disrupting interaction strength |
| L348K | with no effect |
| L348E | with no effect |
| L348T | disrupting interaction strength |
| L348R | disrupting interaction strength |
| L348A | with no effect |
| Y341E | with no effect |
| Y341K | with no effect |
| Y341D | disrupting interaction strength |
| Y341C | disrupting interaction strength |
| Y341A | disrupting interaction strength |
| P335K | with no effect |
| P335T | disrupting interaction strength |
| P335E | with no effect |
| P335A | with no effect |
| L340K | with no effect |
| L340A | with no effect |
| L340F | disrupting interaction strength |
| L340E | with no effect |
| L343A | with no effect |

| Variant | effect of a mutation on the interaction |
| --- | --- |
| L343E | with no effect |
| L343R | disrupting interaction strength |
| L343H | disrupting interaction strength |
| L343P | disrupting interaction strength |
| L343K | with no effect |
| L343T | disrupting interaction strength |
| K336A | with no effect |
| K336E | with no effect |
| N332E | with no effect |
| N332A | with no effect |
| N332I | disrupting interaction strength |
| N332F | disrupting interaction strength |
| N332Y | disrupting interaction strength |
| N332K | with no effect |
| I331K | with no effect |
| I331F | disrupting interaction strength |
| I331E | with no effect |
| N350A | with no effect |
| N350D | disrupting interaction strength |
| G338E | disrupting interaction strength |
| G338K | with no effect |
| G338A | with no effect |
| G338R | disrupting interaction strength |
| T349E | with no effect |
| T349A | with no effect |
| T349K | with no effect |
